# From the supplement of paper PMC10567573
# ± gives the standard deviation.
# Test: protein stability index of a GFP-peptide fusion (GPS, HEK-293T) (PSI 1-6); higher = more stable
# Settings: c terminus: a fixed tail appended
# 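Also: 24-mer peptide tiles fused after GFP, lentivirally expressed, FACS-sorted into six equal bins by GFP/DsRed ratio, decoded by Illumina sequencing, PSI is the read-weighted mean bin number.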
Sequence,protein stability index (treatment: DMSO),"protein stability index (treatment: MLN4924 1 uM, 8 h)"
ANTMEHLSLLDNNIPGNSTLITAV [FBXO33],3.16 ± 0.17,3.25 ± 0.33
SSALHLSKGMSIFLDILRRADKND [NECAB1],2.29 ± 0.13,2.6 ± 0.31
RELLEFTHMYLQSDDEMELEETEP [P3H4],4.98 ± 0.18,5.15 ± 0.22
EIIKVTEQLIEAINNGDFEAYTKI [CAMK2D],2.47 ± 0.12,2.63 ± 0.29
KELRDGGEQDTWAGEGAEALARNL [NFE2L1],5.26 ± 0.25,5.36 ± 0.27
QQQQAMSFAILRIIRLVRVFRIFK [KCNA4],2.71 ± 0.24,3.01 ± 0.26
LALVTLLSFATRFHRLDEPPHICW [POMT2],3.25 ± 0.61,3.19 ± 0.22
EQLERIERKNAEMYKLSSEQFHEA [CHCHD6],4.52 ± 0.46,4.78 ± 0.12
YEIEIQAEDGGAYLATAKVLITVE [PCDHGA10],2.96 ± 0.39,2.89 ± 0.91
YDPWNAPEGIQKVAKCLIGVNYPK [CRY1],2.69 ± 0.13,2.87 ± 0.16
HMVSDGSWVVRVQAAKLLGSMEQV [INTS4],2.48 ± 0.74,2.1 ± 0.21
TERDEIEDVKCQEDQKLQVLLTQI [TRIM15],4.34 ± 0.2,4.54 ± 0.12
DNEDYPLFRELWRYHFATGVWHQM [KLHDC10],2 ± 0.76,2.03 ± 0.46
ACRFTKCLRVGMLKEGVRLDRVRG [ESRRA],2.31 ± 0.17,2.25 ± 0.19
LAQLLDTLLAIGTKLPENQAIQMR [INTS4],3.12 ± 0.73,2.76 ± 0.5
LKDNPLDPVLAKVAGDCLDEKQCK [LRRC59],5.13 ± 0.44,5.19 ± 0.27
RFPYLCQKNGGGAYLVPYLVLLII [SLC6A17],2.64 ± 1.1,2.49 ± 0.94
PGGDQGGPPVGPLSLGLATVDIQN [WAS],4.75 ± 0.22,4.71 ± 0.087
MQAEAEAASVRMRGEAEAFAIGAR [FLOT1],4.62 ± 0.31,4.75 ± 0.31
RGDRGPGPALAGEPAGSLRELGVW [C2CD2L],3.25 ± 0.14,3.55 ± 0.27
FWPHLKASNWSTTGFGQGQGYTIN [HDAC6],2.38 ± 0.32,2.64 ± 0.17
SCIMENGHQPGTGPGDGPPEIAQN [SMTNL2],4.95 ± 0.28,4.99 ± 0.074
VIMQVPERIVVAGNNEDVSFSRPA [MFF],3.4 ± 0.3,3.47 ± 0.6
